Results as given in patent US20040202655A1.
Values joined by “and” are separate entries in the source; they are usually repeats but may differ in a detail not shown here. Equal entries are not always repeated.

Columns and labels:
[1] = molecular target: human IGF-I receptor on cells (NIH-3T3 fibroblasts expressing the human IGF-IR; DU145 cells) (human) (UniProt P08069); experiment: competition with 125I-IGF-I, NIH-3T3 cells expressing human IGF-1R, 37 C
[2] = molecular target: human IGF-I receptor on cells (NIH-3T3 fibroblasts expressing the human IGF-IR; DU145 cells) (human) (UniProt P08069); experiment: cell-based or functional assay
[3] = molecular target: human IGF-I receptor on cells (NIH-3T3 fibroblasts expressing the human IGF-IR; DU145 cells) (human) (UniProt P08069); experiment: competition with 125I-IGF-II, NIH-3T3 cells expressing human IGF-1R, 37 C
[4] = molecular target: human IGF-I receptor on cells (NIH-3T3 fibroblasts expressing the human IGF-IR; DU145 cells) (human) (UniProt P08069); experiment: competition with 125I-IGF-I, NIH-3T3 cells expressing human IGF-1R, 4 C
[5] = molecular target: human IGF-I receptor on cells (NIH-3T3 fibroblasts expressing the human IGF-IR; DU145 cells) (human) (UniProt P08069); experiment: competition with 125I-IGF-II, NIH-3T3 cells expressing human IGF-1R, 4 C

| Substance | IC50 [1] | IC50 (nM), IGF-1 dependent proliferation of NIH-3T3/hIGF-1R cells (BrdU ELISA) [2] [nM] | IC50 [3] | IC50 [4] | IC50 [5] |
| --- | --- | --- | --- | --- | --- |
| MOPC-21 (#M-7894, Sigma), IgG1 isotype control (antibody) | > 50 nM | > 70 | > 50 nM | – | – |
| UPC-10 (#F-0528), IgG2a isotype control (antibody) | – | > 70 | > 50 nM | – | – |
| mouse anti-IGF-1R monoclonal antibody 24-57 (#MS-643-PABX, NeoMarkers) | 1.7 nM and 1.9 nM | – | 4 nM and 6.5 nM | 3 nM and 1.5 nM and 4 nM | 1 nM and 0.6 nM |
| mouse anti-IGF-1R monoclonal antibody alpha IR3 (#GR11SP2, Oncogene Research Products) | 1.6 nM and 1.9 nM | > 70 | > 50 nM | 3.5 nM | – |
